Target: human EDAR-Fc
Assay: SPR (Biacore); Fab fragment

Sequence of human EDAR-Fc (chain, as listed by the source): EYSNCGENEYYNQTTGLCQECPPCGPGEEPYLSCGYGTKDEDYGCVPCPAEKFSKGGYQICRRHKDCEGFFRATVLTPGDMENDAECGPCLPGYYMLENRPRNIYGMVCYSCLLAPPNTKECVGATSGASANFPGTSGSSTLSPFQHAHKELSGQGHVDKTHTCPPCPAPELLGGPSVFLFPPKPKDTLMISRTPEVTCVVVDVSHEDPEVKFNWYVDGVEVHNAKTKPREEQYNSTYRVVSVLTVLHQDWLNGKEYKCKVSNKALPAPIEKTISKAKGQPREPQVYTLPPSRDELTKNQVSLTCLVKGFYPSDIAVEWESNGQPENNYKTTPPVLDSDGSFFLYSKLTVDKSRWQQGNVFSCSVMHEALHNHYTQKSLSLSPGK

Binder | Kd
mAbEDAR6 (antibody, V domains shown) VH: EVQLQQSGPELVKPGASVKMSCKASGYSFTGYNMHWVKQSHGKSLEWIGYIDPYNGATSKNQKFKGKATLTVDKSSTTAYIQLNSLTSEDSAVYYCARYYYGDYHWYFDVWGAGTTVTVSS VL: DVVMTQTPLSLPVSLGDQASISCRSSQSLVHSNGNTYLHWYLQQPGQSPKLLIYKVSNRFSGVPDRFSGSGSGTDFTLKISRVEAEDLGVYFCSQHTHVPPTFGAGTKLELKR | 1.58 nM
mAbEDAR2 (antibody, V domains shown) VH: QVQLQQPGAELVKPGASVKLSCKASGYTFTSYWMQWVKQRPGQGIEWIGEIDPSDSYTYYNQKFKGKATLTIDKSSSTAYMQLSSLTSEDSAVYYCSRKNYYRGMDYWGQGTSVTVSS VL: DVLMTQTPLSLPVSLGDQASISCRSSQNIVQSNGNTYLEWYLQKPGQSPKLLIYKVSNRFSGVPDRFSGSGSGTDFTLKISRVEADDLGVYYCFQVSHVPYTFGGGTKLEIKR | 1 nM
